In US20220177587A1, “METHODS AND USES OF VARIANT CD80 FUSION PROTEINS AND RELATED CONSTRUCTS” (Alpine Immune Sciences, Inc., priority 2018, published 2022):

What was measured:
CD28 (human) [1] = target: CD28 (human) (UniProt P10747); assay: flow cytometry, Expi293F cells transfected with CD28
human CTLA-4 (human) [2] = target: human CTLA-4 (human) (UniProt P16410); assay: flow cytometry, Expi293F cells transfected with CTLA-4
human PD-L1 (human) [3] = target: human PD-L1 (human) (UniProt Q9NZQ7); assay: flow cytometry, Expi293F cells transfected with PD-L1
Sequence of human PD-L1 (human) (Q9NZQ7 19-290): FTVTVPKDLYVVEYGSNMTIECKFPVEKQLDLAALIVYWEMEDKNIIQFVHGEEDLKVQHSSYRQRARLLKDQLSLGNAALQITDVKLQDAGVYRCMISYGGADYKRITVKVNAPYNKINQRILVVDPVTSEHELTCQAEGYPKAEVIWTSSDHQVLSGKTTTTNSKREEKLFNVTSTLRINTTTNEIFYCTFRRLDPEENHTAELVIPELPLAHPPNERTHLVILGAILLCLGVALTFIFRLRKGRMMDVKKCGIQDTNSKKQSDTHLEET

CD28 (human) [4] = target: CD28 (human) (UniProt P10747); assay: flow cytometry, Jurkat/IL2 reporter cells (CD28)
human PD-L1 (human) [5] = target: human PD-L1 (human) (UniProt Q9NZQ7); assay: flow cytometry, CHO cells expressing huPD-L1
human CTLA-4 (human) [6] = target: human CTLA-4 (human) (UniProt P16410); assay: flow cytometry, CHO cells expressing huCTLA-4

Sequence of human CTLA-4 (human) (P16410 36-223): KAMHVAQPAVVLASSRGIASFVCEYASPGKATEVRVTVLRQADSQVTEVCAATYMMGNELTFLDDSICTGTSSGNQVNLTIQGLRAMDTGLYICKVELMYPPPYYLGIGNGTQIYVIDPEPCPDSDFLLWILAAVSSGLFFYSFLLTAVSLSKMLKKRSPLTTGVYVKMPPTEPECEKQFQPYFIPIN

Binder | MFI (CD28 (human) [1]) | parental ratio (CD28 (human) [1]) | MFI (human CTLA-4 (human) [2]) | parental ratio (human CTLA-4 (human) [2]) | MFI (human PD-L1 (human) [3]) | parental ratio (human PD-L1 (human) [3]) | MFI at 33.3 nM (CD28 (human) [4]) | MFI at 33.3 nM (human PD-L1 (human) [5]) | MFI at 33.3 nM (human CTLA-4 (human) [6])
CD80 R29V/M43Q/E81R/L85I/K89R/D90L/A91E/F92N/K93Q/R94G ECD-Fc (Fc fusion) VIHVTKEVKEVATLSCGHNVSVEELAQTVIYWQKEKKMVLTMQSGDMNIWPEYKNRTIFDITNNLSIVILALRPSDEGTYRCVVIKYERLENQGEHLAEVTLSVKADFPTPSISDFEIPTSNIRRIICSTSGGFPEPHLSWLENGEELNAINTTVSQDPETELYAVSSKLDFNMTTNHSFMCLIKYGHLRVNQTFNWNTTKQEHFPDN | 1030 MFI | 0.08 | 996 MFI | 0.02 | 1580 MFI | 0.09 | – | – | –
CD80 E24G/R29D/Y31L/Q33H/K36G/M38I/T41A/M43R/M47T/F59L/E81V/L85R/K89N/A91T/F92P/K93V/R94L/H96R/N149S/C182S ECD-Fc (Fc fusion) VIHVTKEVKEVATLSCGHNVSVEGLAQTDILWHKEGKIVLAMRSGDTNIWPEYKNRTILDITNNLSIVILALRPSDEGTYVCVVRKYENDTPVLERLAEVTLSVKADFPTPSISDFEIPTSNIRRIICSTSGGFPEPHLSWLENGEELSAINTTVSQDPETELYAVSSKLDFNMTTNHSFMSLIKYGHLRVNQTFNWNTTKQEHFPDN | 1070 MFI | 0.08 | 1020 MFI | 0.02 | 1120 MFI | 0.06 | – | – | –
CD80 K36G/K37Q/M38I/L40M ECD-Fc (Fc fusion) VIHVTKEVKEVATLSCGHNVSVEELAQTRIYWQKEGQIVMTMMSGDMNIWPEYKNRTIFDITNNLSIVILALRPSDEGTYECVVLKYEKDAFKREHLAEVTLSVKADFPTPSISDFEIPTSNIRRIICSTSGGFPEPHLSWLENGEELNAINTTVSQDPETELYAVSSKLDFNMTTNHSFMCLIKYGHLRVNQTFNWNTTKQEHFPDN | 1170 MFI | 0.09 | 1400 MFI | 0.03 | 959 MFI | 0.05 | – | – | –
CD80 V4M/L70Q/A91G/I118V/T120S/T130A/K169E ECD-Fc (Fc fusion) VIHMTKEVKEVATLSCGHNVSVEELAQTRIYWQKEKKMVLTMMSGDMNIWPEYKNRTIFDITNNLSIVIQALRPSDEGTYECVVLKYEKDGFKREHLAEVTLSVKADFPTPSISDFEVPSSNIRRIICSASGGFPEPHLSWLENGEELNAINTTVSQDPETELYAVSSELDFNMTTNHSFMCLIKYGHLRVNQTFNWNTTKQEHFPDN | 89 MFI | 0.94 | 263 MFI | 1.26 | 6 MFI | 0.09 | – | – | –
CD80 I67F/L70R/E88G/A91G/I118V/T120S/T130A ECD-Fc (Fc fusion) VIHVTKEVKEVATLSCGHNVSVEELAQTRIYWQKEKKMVLTMMSGDMNIWPEYKNRTIFDITNNLSFVIRALRPSDEGTYECVVLKYGKDGFKREHLAEVTLSVKADFPTPSISDFEVPSSNIRRIICSASGGFPEPHLSWLENGEELNAINTTVSQDPETELYAVSSKLDFNMTTNHSFMCLIKYGHLRVNQTFNWNTTKQEHFPDN | 5 MFI | 0.05 | 6 MFI | 0.03 | 6 MFI | 0.08 | – | – | –
CD80 A91G/F92L/F108L/I118V/T120S ECD-Fc (Fc fusion) VIHVTKEVKEVATLSCGHNVSVEELAQTRIYWQKEKKMVLTMMSGDMNIWPEYKNRTIFDITNNLSIVILALRPSDEGTYECVVLKYEKDGLKREHLAEVTLSVKADLPTPSISDFEVPSSNIRRIICSTSGGFPEPHLSWLENGEELNAINTTVSQDPETELYAVSSKLDFNMTTNHSFMCLIKYGHLRVNQTFNWNTTKQEHFPDN | 50 MFI | 0.53 | 128 MFI | 0.61 | 16 MFI | 0.11 | – | – | –
CD80 L70Q/A91G/T110A/I118V/T120S/T130A ECD-Fc (Fc fusion) VIHVTKEVKEVATLSCGHNVSVEELAQTRIYWQKEKKMVLTMMSGDMNIWPEYKNRTIFDITNNLSIVIQALRPSDEGTYECVVLKYEKDGFKREHLAEVTLSVKADFPAPSISDFEVPSSNIRRIICSASGGFPEPHLSWLENGEELNAINTTVSQDPETELYAVSSKLDFNMTTNHSFMCLIKYGHLRVNQTFNWNTTKQEHFPDN | 8 MFI | 0.09 | 14 MFI | 0.07 | 5 MFI | 0.07 | – | – | –
CD80 I67T/L70Q/A91G/I118V/T120S ECD-Fc (Fc fusion) VIHVTKEVKEVATLSCGHNVSVEELAQTRIYWQKEKKMVLTMMSGDMNIWPEYKNRTIFDITNNLSTVIQALRPSDEGTYECVVLKYEKDGFKREHLAEVTLSVKADFPTPSISDFEVPSSNIRRIICSTSGGFPEPHLSWLENGEELNAINTTVSQDPETELYAVSSKLDFNMTTNHSFMCLIKYGHLRVNQTFHWNTTKQEHFPDN | 98 MFI | 1.03 | 160 MFI | 0.77 | 5 MFI | 0.08 | – | – | –
CD80 A91G/S103P ECD-Fc (Fc fusion) VIHVTKEVKEVATLSCGHNVSVEELAQTRIYWQKEKKMVLTMMSGDMNIWPEYKNRTIFDITNNLSIVILALRPSDEGTYECVVLKYEKDGFKREHLAEVTLPVKADFPTPSISDFEIPTSNIRRIICSTSGGFPEPHLSWLENGEELNAINTTVSQDPETELYAVSSKLDFNMTTNHSFMCLIKYGHLRVNQTFNWNTTKQEHFPDN | 39 MFI | 0.41 | – | – | 9 MFI | 0.13 | – | – | –
CD80 K37E/F59S/L70Q/A91G/T120S/T130A ECD-Fc (SEQ ID NO 1397) (Fc fusion) VIHVTKEVKEVATLSCGHNVSVEELAQTRIYWQKEKEMVLTMMSGDMNIWPEYKNRTISDITNNLSIVIQALRPSDEGTYECVVLKYEKDGFKREHLAEVTLSVKADFPTPSISDFEVPSSNIRRIICSASGGFPEPHLSWLENGEELNAINTTVSQDPETELYAVSSKLDFNMTTNHSFMCLIEYGHLRVNQTFNWNTTKQEHFPDN | 20 MFI | 0.21 | 74 MFI | 0.36 | 6 MFI | 0.08 | – | – | –
CD80 A91G/L102S ECD-Fc (Fc fusion) VIHVTKEVKEVATLSCGHNVSVEELAQTRIYWQKEKKMVLTMMSGDMNIWPEYKNRTIFDITNNLSIVILALRPSDEGTYECVVLKYEKDGFKREHLAEVTSSVKADFPTPSISDFEIPTSNIRRIICSTSGGFPEPHLSWLENGEELNAINTTVSQDPETELYAVSSKLDFNMTTNHSFMCLIKYGHLRVNQTFNWNTTKQEHFPDN | 6 MFI | 0.06 | 6 MFI | 0.03 | 5 MFI | 0.08 | – | – | –
CD80 S44P/L70Q/A91G/T130A ECD-Fc (Fc fusion) VIHVTKEVKEVATLSCGHNVSVEELAQTRIYWQKEKKMVLTMMPGDMNIWPEYKNRTIFDITNNLSIVIQALRPSDEGTYECVVLKYEKDGFKREHLAEVTLSVKADFPTPSISDFEIPTSNIRRIICSASGGFPEPHLSWLENGEELNAINTTVSQDPETELYAVSSKLDFNMTTNHSFMCLIKYGHLRVNQTFNWNTTKQEHFPDN | 88 MFI | 0.92 | 134 MFI | 0.64 | 5 MFI | 0.07 | – | – | –
CD80 V22A/L70Q/S121P ECD-Fc (Fc fusion) VIHVTKEVKEVATLSCGHNVSAEELAQTRIYWQKEKKMVLTMMSGDMNIWPEYKNRTIFDITNNLSIVIQALRPSDEGTYECVVLKYEKDAFKREHLAEVTLSVKADFPTPSISDFEIPTPNIRRIICSTSGGFPEPHLSWLENGEELNAINTTVSQDPETELYAVSSKLDFNMTTNHSFMCLIKYGHLRVNQTFNWNTTKQEHFPDN | 5 MFI | 0.06 | 7 MFI | 0.04 | 5 MFI | 0.07 | – | – | –
CD80 A12V/S15F/Y31H/M38L/T41G/M43L/D90N/T130A/P137L/N149D/N152T ECD-Fc (Fc fusion) VIHVTKEVKEVVTLFCGHNVSVEELAQTRIHWQKEKKLVLGMLSGDMNIWPEYKNRTIFDITNNLSIVILALRPSDEGTYECVVLKYEKNAFKREHLAEVTLSVKADFPTPSISDFEIPTSNIRRIICSASGGFPELHLSWLENGEELDAITTTVSQDPETELYAVSSKLDFNMTTNHSFMCLIKYGHLRVNQTFNWNTTKQEHFPDN | 6 MFI | 0.06 | 6 MFI | 0.03 | 5 MFI | 0.08 | – | – | –
variant CD80 IgV-Fc E35D/M47L (Fc fusion) VIHVTKEVKEVATLSCGHNVSVEELAQTRIYWQKDKKMVLTMMSGDLNIWPEYKNRTIFDITNNLSIVILALRPSDEGTYECVVLKYEKDAFKREHLAEVTLSVKAD | – | – | – | – | – | – | 411 MFI | 7530 MFI | 48000 MFI
variant CD80 IgV-Fc E35D/N48K/V68M (Fc fusion) VIHVTKEVKEVATLSCGHNVSVEELAQTRIYWQKDKKMVLTMMSGDMKIWPEYKNRTIFDITNNLSIMILALRPSDEGTYECVVLKYEKDAFKREHLAEVTLSVKAD | – | – | – | – | – | – | 642 MFI | – | 33600 MFI
variant CD80 IgV-Fc E35D/M47V/V68M/K89N (Fc fusion) VIHVTKEVKEVATLSCGHNVSVEELAQTRIYWQKDKKMVLTMMSGDVNIWPEYKNRTIFDITNNLSIMILALRPSDEGTYECVVLKYENDAFKREHLAEVTLSVKAD | – | – | – | – | – | – | – | 21800 MFI | 29500 MFI
variant CD80 IgV-Fc E35D/D46V/L85Q (Fc fusion) VIHVTKEVKEVATLSCGHNVSVEELAQTRIYWQKDKKMVLTMMSGVMNIWPEYKNRTIFDITNNLSIVILALRPSDEGTYECVVQKYEKDAFKREHLAEVTLSVKAD | – | – | – | – | – | – | 196 MFI | 4040 MFI | 48000 MFI
